B1: H1_L1.89 (antibody, V domains shown)
VH: EVQLVESGGGLVQPGGSLRLSCAASGFTFSSFGMHWVRQAPGKGLEWVSYISSGSSIIYYADSVKGRFTISRDNAKNSLYLQMNSLRAEDTAVYYCARGGRLVWSPDYWGQGTLVTVSS
VL: DIVMTQSPDSLAVSLGERATINCKSSQSLLNSGNQKNYLTWYQQKPGQPPKLLIYWASTRGSGVPDRFTGSGSGTDFTLTISSLQAEDVAVYYCQNDYSYPFTFGSGTKLEIKR
notes: also called VL-E61G; Kabat 55
B2: H1_L1.84 (antibody, V domains shown)
VH: EVQLVESGGGLVQPGGSLRLSCAASGFTFSSFGMHWVRQAPGKGLEWVSYISSGSSIIYYADSVKGRFTISRDNAKNSLYLQMNSLRAEDTAVYYCARGGRLVWSPDYWGQGTLVTVSS
VL: DIVMTQSPDSLAVSLGERATINCKSSQSLLNSGNQKNYLTWYQQKPGQPPKLLIYWASTRQSGVPDRFTGSGSGTDFTLTISSLQAEDVAVYYCQNDYSYPFTFGSGTKLEIKR
notes: also called VL-E61Q; Kabat 55
B3: H1_L1.83 (antibody, V domains shown)
VH: EVQLVESGGGLVQPGGSLRLSCAASGFTFSSFGMHWVRQAPGKGLEWVSYISSGSSIIYYADSVKGRFTISRDNAKNSLYLQMNSLRAEDTAVYYCARGGRLVWSPDYWGQGTLVTVSS
VL: DIVMTQSPDSLAVSLGERATINCKSSQSLLNSGNQKNYLTWYQQKPGQPPKLLIYWASYRESGVPDRFTGSGSGTDFTLTISSLQAEDVAVYYCQNDYSYPFTFGSGTKLEIKR
notes: also called VL-T59Y; Kabat 53
B4: H1_L1.87 (antibody, V domains shown)
VH: EVQLVESGGGLVQPGGSLRLSCAASGFTFSSFGMHWVRQAPGKGLEWVSYISSGSSIIYYADSVKGRFTISRDNAKNSLYLQMNSLRAEDTAVYYCARGGRLVWSPDYWGQGTLVTVSS
VL: DIVMTQSPDSLAVSLGERATINCKSSQSLLNSGNQKNYLTWYQQKPGQPPKLLIYWASTRHSGVPDRFTGSGSGTDFTLTISSLQAEDVAVYYCQNDYSYPFTFGSGTKLEIKR
notes: also called VL-E61H; Kabat 55
B5: H1_L1.88 (antibody, V domains shown)
VH: EVQLVESGGGLVQPGGSLRLSCAASGFTFSSFGMHWVRQAPGKGLEWVSYISSGSSIIYYADSVKGRFTISRDNAKNSLYLQMNSLRAEDTAVYYCARGGRLVWSPDYWGQGTLVTVSS
VL: DIVMTQSPDSLAVSLGERATINCKSSQSLLNSGNQKNYLTWYQQKPGQPPKLLIYWASTRASGVPDRFTGSGSGTDFTLTISSLQAEDVAVYYCQNDYSYPFTFGSGTKLEIKR
notes: also called VL-E61A; Kabat 55
B6: H1_L1.85 (antibody, V domains shown)
VH: EVQLVESGGGLVQPGGSLRLSCAASGFTFSSFGMHWVRQAPGKGLEWVSYISSGSSIIYYADSVKGRFTISRDNAKNSLYLQMNSLRAEDTAVYYCARGGRLVWSPDYWGQGTLVTVSS
VL: DIVMTQSPDSLAVSLGERATINCKSSQSLLNSGNQKNYLTWYQQKPGQPPKLLIYWASTRKSGVPDRFTGSGSGTDFTLTISSLQAEDVAVYYCQNDYSYPFTFGSGTKLEIKR
notes: also called VL-E61K; Kabat 55
B7: H1_L1.81 (antibody, V domains shown)
VH: EVQLVESGGGLVQPGGSLRLSCAASGFTFSSFGMHWVRQAPGKGLEWVSYISSGSSIIYYADSVKGRFTISRDNAKNSLYLQMNSLRAEDTAVYYCARGGRLVWSPDYWGQGTLVTVSS
VL: DIVMTQSPDSLAVSLGERATINCKSSQSLLNSGNQKNYLTWYQQKPGQPPKLLIYWASDRESGVPDRFTGSGSGTDFTLTISSLQAEDVAVYYCQNDYSYPFTFGSGTKLEIKR
notes: also called VL-T59D; Kabat 53
B8: H1_L1.82 (antibody, V domains shown)
VH: EVQLVESGGGLVQPGGSLRLSCAASGFTFSSFGMHWVRQAPGKGLEWVSYISSGSSIIYYADSVKGRFTISRDNAKNSLYLQMNSLRAEDTAVYYCARGGRLVWSPDYWGQGTLVTVSS
VL: DIVMTQSPDSLAVSLGERATINCKSSQSLLNSGNQKNYLTWYQQKPGQPPKLLIYWASKRESGVPDRFTGSGSGTDFTLTISSLQAEDVAVYYCQNDYSYPFTFGSGTKLEIKR
notes: also called VL-T59K; Kabat 53
B9: H1_L1.86 (antibody, V domains shown)
VH: EVQLVESGGGLVQPGGSLRLSCAASGFTFSSFGMHWVRQAPGKGLEWVSYISSGSSIIYYADSVKGRFTISRDNAKNSLYLQMNSLRAEDTAVYYCARGGRLVWSPDYWGQGTLVTVSS
VL: DIVMTQSPDSLAVSLGERATINCKSSQSLLNSGNQKNYLTWYQQKPGQPPKLLIYWASTRSSGVPDRFTGSGSGTDFTLTISSLQAEDVAVYYCQNDYSYPFTFGSGTKLEIKR
notes: also called VL-E61S; Kabat 55
B10: H1.151_L1 (antibody, V domains shown)
VH: EVQLVESGGGLVQPGGSLRLSCAASGFTFSSFGMHWVRQAPGKGLEWVSYISSGSSIIYYADSVKGRFTISRDNAKNSLYLQMNSLRAEDTAVYYCARGGRLVFSPDYWGQGTLVTVSS
VL: DIVMTQSPDSLAVSLGERATINCKSSQSLLNSGNQKNYLTWYQQKPGQPPKLLIYWASTRESGVPDRFTGSGSGTDFTLTISSLQAEDVAVYYCQNDYSYPFTFGSGTKLEIKR
notes: also called VH-W112F; Kabat 100
B11: H1.156_L1 (antibody, V domains shown)
VH: EVQLVESGGGLVQPGGSLRLSCAASGFTFSSFGMHWVRQAPGKGLEWVSYISSGSSIIYYADSVKGRFTISRDNAKNSLYLQMNSLRAEDTAVYYCARGGRLVQSPDYWGQGTLVTVSS
VL: DIVMTQSPDSLAVSLGERATINCKSSQSLLNSGNQKNYLTWYQQKPGQPPKLLIYWASTRESGVPDRFTGSGSGTDFTLTISSLQAEDVAVYYCQNDYSYPFTFGSGTKLEIKR
notes: also called VH-W112Q; Kabat 100; copies: 2 + 2
B12: H1.153_L1 (antibody, V domains shown)
VH: EVQLVESGGGLVQPGGSLRLSCAASGFTFSSFGMHWVRQAPGKGLEWVSYISSGSSIIYYADSVKGRFTISRDNAKNSLYLQMNSLRAEDTAVYYCARGGRLVYSPDYWGQGTLVTVSS
VL: DIVMTQSPDSLAVSLGERATINCKSSQSLLNSGNQKNYLTWYQQKPGQPPKLLIYWASTRESGVPDRFTGSGSGTDFTLTISSLQAEDVAVYYCQNDYSYPFTFGSGTKLEIKR
notes: also called VH-W112Y; Kabat 100; copies: 2 + 2
B13: H1.147_L1 (antibody, V domains shown)
VH: EVQLVESGGGLVQPGGSLRLSCAASGFTFSSFGMHWVRQAPGKGLEWVSYISSGSSIIYYADSVKGRFTISRDNAKNSLYLQMNSLRAEDTAVYYCARGGRLQWSPDYWGQGTLVTVSS
VL: DIVMTQSPDSLAVSLGERATINCKSSQSLLNSGNQKNYLTWYQQKPGQPPKLLIYWASTRESGVPDRFTGSGSGTDFTLTISSLQAEDVAVYYCQNDYSYPFTFGSGTKLEIKR
notes: also called VH-V111Q; Kabat 99
B14: H1.149_L1 (antibody, V domains shown)
VH: EVQLVESGGGLVQPGGSLRLSCAASGFTFSSFGMHWVRQAPGKGLEWVSYISSGSSIIYYADSVKGRFTISRDNAKNSLYLQMNSLRAEDTAVYYCARGGRLDWSPDYWGQGTLVTVSS
VL: DIVMTQSPDSLAVSLGERATINCKSSQSLLNSGNQKNYLTWYQQKPGQPPKLLIYWASTRESGVPDRFTGSGSGTDFTLTISSLQAEDVAVYYCQNDYSYPFTFGSGTKLEIKR
notes: also called VH-V111D; Kabat 99
B15: H1.148_L1 (antibody, V domains shown)
VH: EVQLVESGGGLVQPGGSLRLSCAASGFTFSSFGMHWVRQAPGKGLEWVSYISSGSSIIYYADSVKGRFTISRDNAKNSLYLQMNSLRAEDTAVYYCARGGRLWWSPDYWGQGTLVTVSS
VL: DIVMTQSPDSLAVSLGERATINCKSSQSLLNSGNQKNYLTWYQQKPGQPPKLLIYWASTRESGVPDRFTGSGSGTDFTLTISSLQAEDVAVYYCQNDYSYPFTFGSGTKLEIKR
notes: also called VH-V111W; Kabat 99
B16: H1.150_L1 (antibody, V domains shown)
VH: EVQLVESGGGLVQPGGSLRLSCAASGFTFSSFGMHWVRQAPGKGLEWVSYISSGSSIIYYADSVKGRFTISRDNAKNSLYLQMNSLRAEDTAVYYCARGGRLKWSPDYWGQGTLVTVSS
VL: DIVMTQSPDSLAVSLGERATINCKSSQSLLNSGNQKNYLTWYQQKPGQPPKLLIYWASTRESGVPDRFTGSGSGTDFTLTISSLQAEDVAVYYCQNDYSYPFTFGSGTKLEIKR
notes: also called VH-V111K; Kabat 99
B17: H1.157_L1 (antibody, V domains shown)
VH: EVQLVESGGGLVQPGGSLRLSCAASGFTFSSFGMHWVRQAPGKGLEWVSYISSGSSIIYYADSVKGRFTISRDNAKNSLYLQMNSLRAEDTAVYYCARGGRLVSSPDYWGQGTLVTVSS
VL: DIVMTQSPDSLAVSLGERATINCKSSQSLLNSGNQKNYLTWYQQKPGQPPKLLIYWASTRESGVPDRFTGSGSGTDFTLTISSLQAEDVAVYYCQNDYSYPFTFGSGTKLEIKR
notes: also called VH-W112S; Kabat 100; copies: 2 + 2
B18: H1.155_L1 (antibody, V domains shown)
VH: EVQLVESGGGLVQPGGSLRLSCAASGFTFSSFGMHWVRQAPGKGLEWVSYISSGSSIIYYADSVKGRFTISRDNAKNSLYLQMNSLRAEDTAVYYCARGGRLVHSPDYWGQGTLVTVSS
VL: DIVMTQSPDSLAVSLGERATINCKSSQSLLNSGNQKNYLTWYQQKPGQPPKLLIYWASTRESGVPDRFTGSGSGTDFTLTISSLQAEDVAVYYCQNDYSYPFTFGSGTKLEIKR
notes: also called VH-W112H; Kabat 100; copies: 2 + 2

For one test, the target named is T1, human PD-1-His (human, UniProt Q15116 25-167, limits assumed).
T1 construct: Antigen of the Octet assays; not shown: His tag
T1 sequence (Q15116 25-167 limits assumed): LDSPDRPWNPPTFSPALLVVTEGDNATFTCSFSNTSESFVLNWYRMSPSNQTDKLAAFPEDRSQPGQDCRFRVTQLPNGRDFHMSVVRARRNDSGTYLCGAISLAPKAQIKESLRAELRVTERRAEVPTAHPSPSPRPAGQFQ
Description: Octet [D00120 Figure 65H]. The text has this:
In particular, anti-human IgG-Fc (AHC) biosensors were used to capture the test articles and dipped into multiple concentrations of PD-1.
On the technique in general: In BLI a coated tip is dipped into the sample, and binding shifts an interference pattern.
In general, Kd refers to the concentration at which binding is half-saturated. Read a low Kd as higher affinity. For orientation: koff means the first-order rate constant of dissociation. The low end stands for a long-lived complex, the high end for a short-lived complex. For orientation: kon means a measure of how fast the partners come together. For B1, the equilibrium dissociation constant (Kd) came out at 43.9 nM, the off-rate constant (koff) came to 0.00403 s⁻¹ and the kon was 91900 M⁻¹ s⁻¹.

Molecule B2 registered a Kd of 46 nM, a koff of 0.00478 s⁻¹ and a kon of 104000 M⁻¹ s⁻¹.

Regarding B3, the Kd worked out at 64.3 nM, the koff was found to be 0.00603 s⁻¹ and the on-rate constant (kon) was 93800 M⁻¹ s⁻¹.

Molecule B4 showed a Kd of 50.9 nM, a koff of 0.00552 s⁻¹ and a kon of 109000 M⁻¹ s⁻¹.

Molecule B5 came in with a Kd of 43.3 nM, a koff of 0.00411 s⁻¹ and an on-rate (kon) of 95000 M⁻¹ s⁻¹.

Molecule B6 had a Kd of 31.8 nM, an off-rate (koff) of 0.00316 s⁻¹ and a kon of 99400 M⁻¹ s⁻¹.

As to B7, the Kd amounted to 51.4 nM, the koff was 0.00606 s⁻¹ and the kon came out at 118000 M⁻¹ s⁻¹.

B8 registered a dissociation constant Kd of 52.6 nM, an off-rate (koff) of 0.00602 s⁻¹ and a kon of 114000 M⁻¹ s⁻¹.

B9: the dissociation constant (Kd) is 40.6 nM, the dissociation rate constant (koff) was determined as 0.0047 s⁻¹ and the on-rate (kon) turned out to be 116000 M⁻¹ s⁻¹.

The next test deals with T1, human PD-1-His. In words: Octet.
B10 showed a dissociation constant (Kd) of 309 nM, a koff of 0.087 s⁻¹ and an association rate constant (kon) of 282000 M⁻¹ s⁻¹.

Take B11: the binding result is on record as “no binding”.

Consider B12, for which the binding result is on record as “no binding”.

In the case of B13, the affinity, expressed as Kd, was 92.3 nM; the dissociation rate constant (koff) was 0.013 s⁻¹; the kon came to 140000 M⁻¹ s⁻¹.

Molecule B14 yielded a Kd of 116 nM, a koff of 0.0116 s⁻¹ and a kon of 99700 M⁻¹ s⁻¹.

The molecule B15 showed a Kd of 77.5 nM, a koff of 0.0112 s⁻¹ and an on-rate constant (kon) of 144000 M⁻¹ s⁻¹.

Molecule B16 displayed a dissociation constant (Kd) of 60 nM, an off-rate (koff) of 0.00524 s⁻¹ and a kon of 87200 M⁻¹ s⁻¹.

With B17, the binding result is given as “no binding”.

B18: the binding result is reported as “no binding”.

For the origin of these results see patent US20240294593A1 (Genentech, published 2024).
